Series [1] deals with T1, UP1+RGG (UniProt P09651-2 1-249). Description: ITC; 100 mM KCl; ITC/CD: 20 mM Tris pH 8.0, 100 mM KCl, 25 C; NMR: 10 mM potassium phosphate pH 6.5, 100 mM KCl, 298 K (10% D2O for HSQC). The settings on record: protein: recombinant, tags: C-terminal 6xHis.
Another series addresses UP1 (UniProt P09651-2 1-196). The series is described as above. As to conditions: protein: recombinant, tags: C-terminal 6xHis.
The target of series [2] is T2, RGG-box (isolated) (UniProt P09651-2 197-249). The description is as above. As to conditions: protein: recombinant; tags: GST removed by TEV; intramolecular parallel G4.
In series [3] the target is T1, UP1+RGG. Description: ITC; 100 mM KCl, 20% PEG 200; ITC/CD: 20 mM Tris pH 8.0, 100 mM KCl, 25 C; NMR: 10 mM potassium phosphate pH 6.5, 100 mM KCl, 298 K (10% D2O for HSQC). The settings on record: protein: recombinant; tags: C-terminal 6xHis; intramolecular parallel G4.
The target of series [4] is T2, RGG-box (isolated). As to the kind of experiment: NMR HSQC CSP titration (global fit); 100 mM KCl; ITC/CD: 20 mM Tris pH 8.0, 100 mM KCl, 25 C; NMR: 10 mM potassium phosphate pH 6.5, 100 mM KCl, 298 K (10% D2O for HSQC). As to conditions: protein: recombinant; tags: GST removed by TEV; intramolecular parallel G4.
[5] abbreviates: parallel G4 tetramer of 4 strands, no loops.
Setting [6] is: parallel G4 dimer of 2 strands, two loops.

4 molecules from publication PMC7192615, “Structure specific recognition of telomeric repeats containing RNA by the RGG-box of hnRNPA1” can be followed below.

Chain of UP1 (P09651 1-196): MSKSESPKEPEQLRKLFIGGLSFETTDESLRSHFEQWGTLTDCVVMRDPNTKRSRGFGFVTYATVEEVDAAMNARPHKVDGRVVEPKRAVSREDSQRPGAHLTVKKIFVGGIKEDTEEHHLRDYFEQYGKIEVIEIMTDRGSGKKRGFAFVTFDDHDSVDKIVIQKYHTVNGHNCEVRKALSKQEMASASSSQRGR
T1 sequence (P09651 1-249): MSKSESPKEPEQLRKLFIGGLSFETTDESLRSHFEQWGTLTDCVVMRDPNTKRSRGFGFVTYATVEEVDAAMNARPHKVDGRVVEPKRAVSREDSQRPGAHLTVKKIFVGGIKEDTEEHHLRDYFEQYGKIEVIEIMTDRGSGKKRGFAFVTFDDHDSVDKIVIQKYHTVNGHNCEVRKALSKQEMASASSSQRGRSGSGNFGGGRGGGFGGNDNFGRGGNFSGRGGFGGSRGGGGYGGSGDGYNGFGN
T2 sequence (P09651 197-249): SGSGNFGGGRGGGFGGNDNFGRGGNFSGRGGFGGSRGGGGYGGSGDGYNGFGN

For UUAGGG (structured_RNA) [TERRA-6], the Kd with UP1+RGG [1] (setting [5]) is 2380 ± 230 nM; with UP1 (setting [5]), 2020 ± 170 nM.
With UUAGGGUUAGGG (structured_RNA) [TERRA-12], the Kd in the series with UP1+RGG [1] (setting [6]) was determined as 1070 ± 140 nM; with UP1 (setting [6]), 2040 ± 470 nM.
Take UUAGGGUUAGGGUUAGGGUUAGGG (structured_RNA) [TERRA-24]: the Kd in the series with UP1+RGG [1] (intramolecular parallel G4) amounted to 920 ± 170 nM; in the series with UP1 (intramolecular parallel G4), 1710 ± 170 nM; with RGG-box (isolated) [2], 9000 ± 4300 nM; with UP1+RGG [3], 3000 ± 550 nM; with RGG-box (isolated) [4], 11000 ± 1500 nM.
Take GAGUAACCCGUAUCGUGA (ssRNA) [ssRNA-18]: the dissociation constant Kd stood at 2280 ± 260 nM with UP1+RGG [1] (single strand, 18 nt) and 2370 ± 490 nM with UP1 (single strand, 18 nt).

One may read the Kd as the equilibrium constant for the complex coming apart.
